Here are results for four molecules from patent US20220081485A1 (BEIJING WISDOMAB BIOTECHNOLOGY, published 2022).

Like-named read-outs stand apart in the source and are kept apart here.

Experiment [1] addresses T1, human IL-4R on cells (HEK-Blue IL-4/IL-13 cells, TF-1 cells, human PBMCs) (human, UniProt P24394 26-825).
T1 sequence (looked up): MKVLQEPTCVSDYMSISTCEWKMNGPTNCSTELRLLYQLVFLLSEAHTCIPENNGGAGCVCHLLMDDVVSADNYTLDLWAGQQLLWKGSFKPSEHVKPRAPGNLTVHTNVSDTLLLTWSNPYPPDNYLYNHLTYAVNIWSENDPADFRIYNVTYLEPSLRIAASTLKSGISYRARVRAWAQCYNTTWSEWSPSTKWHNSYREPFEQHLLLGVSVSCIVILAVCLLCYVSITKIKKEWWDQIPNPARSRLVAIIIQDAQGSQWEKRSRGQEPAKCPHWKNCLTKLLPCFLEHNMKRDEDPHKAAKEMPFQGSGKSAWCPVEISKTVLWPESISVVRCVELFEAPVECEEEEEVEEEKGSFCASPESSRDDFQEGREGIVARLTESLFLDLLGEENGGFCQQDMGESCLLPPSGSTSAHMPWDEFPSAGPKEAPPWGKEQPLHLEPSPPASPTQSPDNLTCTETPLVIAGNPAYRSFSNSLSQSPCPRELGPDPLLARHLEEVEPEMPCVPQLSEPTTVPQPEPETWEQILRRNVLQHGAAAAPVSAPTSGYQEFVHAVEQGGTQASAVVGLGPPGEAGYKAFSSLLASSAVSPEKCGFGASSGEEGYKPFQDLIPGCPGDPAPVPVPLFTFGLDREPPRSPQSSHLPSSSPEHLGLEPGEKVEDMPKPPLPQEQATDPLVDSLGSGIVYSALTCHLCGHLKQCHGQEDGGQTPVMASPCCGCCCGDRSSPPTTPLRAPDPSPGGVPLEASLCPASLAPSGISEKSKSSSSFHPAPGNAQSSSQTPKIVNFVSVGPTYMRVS
Kind of experiment: cell-based or functional assay.

Experiment [2] concerns the target T1, human IL-4R on cells (HEK-Blue …). As to the kind of experiment: cell-based or functional assay. This is another data set of the same source.
Experiment [3] shares this target. Kind of experiment: cell-based or functional assay. The source holds these as a separate data set.
For experiment [4] the target is unchanged. Kind of experiment: cell-based or functional assay. This is another data set of the same source.
Experiment [5] addresses T2, mmIL4R-mFc (Macaca mulatta IL-4R extracellular domain fused to murine IgG2a Fc) (Macaca mulatta).
T2 chain: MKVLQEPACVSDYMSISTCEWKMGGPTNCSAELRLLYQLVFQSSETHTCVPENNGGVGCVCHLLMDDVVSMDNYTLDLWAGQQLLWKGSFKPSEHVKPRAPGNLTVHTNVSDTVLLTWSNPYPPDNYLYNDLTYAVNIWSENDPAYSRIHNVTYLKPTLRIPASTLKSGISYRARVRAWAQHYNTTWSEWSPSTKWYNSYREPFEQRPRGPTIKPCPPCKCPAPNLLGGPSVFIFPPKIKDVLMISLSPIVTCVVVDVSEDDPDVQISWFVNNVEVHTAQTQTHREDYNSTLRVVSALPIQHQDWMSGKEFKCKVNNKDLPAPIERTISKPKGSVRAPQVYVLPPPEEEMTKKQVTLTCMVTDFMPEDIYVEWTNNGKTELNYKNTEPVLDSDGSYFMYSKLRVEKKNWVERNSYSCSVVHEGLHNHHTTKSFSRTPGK
As to the kind of experiment: SPR Biacore X100, antibody captured, mmIL4R-mFc as analyte. As to the method: (§1) The affinity of each anti-IL4R IgG4 chimeric antibody was determined using Biacore X100. Amino coupling kits, human antibody capture kits, CM5 chips, 1× HBS-EP (pH 7.4) and all reagents used in this assay were purchased from GE Healthcare. According to the instructions in the kits, an antibody against the human Fc region was coupled to the surface of the CM5 chip using an amino coupling method, and antibody proteins were diluted to appropriate concentrations to ensure that about 100 RU of the antibodies was captured by the antibody against the human Fc. IL4R-his was set to a series of concentration gradients (100 nm, 33.3 nm, 11.1 nm, 3.7 nm, 1.23 nm) and flew through the surface of the stationary phase.
Similarly, anti-IL4R monoclonal antibodies were captured and mmIL4R-mFc was set to a series of concentration gradient (50 nm, 16.7 nm, 5.56 nm, […], 0.62 nm).
For orientation: SPR reads the build-up and loss of mass on a sensor chip optically.

The target of experiment [6] is T3, recombinant hIL4R-his (human IL-4R extracellular domain with C-terminal His tag) (human (Homo sapiens), UniProt P24394 26-232).
T3 construct: The tag was added at the C-terminus; The protein was expressed in HEK293 cells; also called huIL4R
T3 sequence: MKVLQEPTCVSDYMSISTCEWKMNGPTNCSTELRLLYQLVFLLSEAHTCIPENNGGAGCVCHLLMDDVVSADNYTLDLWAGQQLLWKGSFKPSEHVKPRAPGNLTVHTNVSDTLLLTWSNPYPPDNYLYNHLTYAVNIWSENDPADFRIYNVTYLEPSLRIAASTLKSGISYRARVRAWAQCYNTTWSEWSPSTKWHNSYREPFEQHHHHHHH
As to the kind of experiment: SPR Biacore X100, antibody captured by anti-human Fc, IL4R-his as analyte, 25 C. As for the experimental part:
as §1

Experiment [7] addresses T4, IL4R-mFc (human IL-4R extracellular domain fused to murine IgG2a Fc) (human (Homo sapiens)).
T4 construct: also called antigen IL4R-mFc
Kind of experiment: blocking ELISA: antibody gradient with IL4-his at a fixed concentration on coated IL4R-mFc; bound IL4-his detected with HRP-mouse-anti-his IgG. As to the method: (§2) 96 well plates were coated with antigen IL4R-mFc (3 μg/ml, 100 μI/well) overnight at 4° C.
In general terms: ELISA stands for enzyme-linked immunosorbent assay.

Experiment [8] has as its target T1, human IL-4R on cells (HEK-Blue …). Kind of experiment: cell-based or functional assay. This is another data set of the same source.
Experiment [9] shares this target. Kind of experiment: cell-based or functional assay. The source holds these as a separate data set.
The target in experiment [10] is T3, recombinant hIL4R-his (human IL-4R …). Kind of experiment: SPR Biacore X100, antibody captured by anti-human Fc, IL4R-his as analyte, 25 C. As for the experimental part: as §1
The source holds these as a separate data set.

In experiment [11] the target is T4, IL4R-mFc (human IL-4R extracellular …). As to the kind of experiment: blocking ELISA: antibody gradient with IL4-his at a fixed concentration on coated IL4R-mFc; bound IL4-his detected with HRP-mouse-anti-his IgG. As to the method: as §2
The source holds these as a separate data set.

Experiment [12] addresses T1, human IL-4R on cells (HEK-Blue …). As to the kind of experiment: cell-based or functional assay. This is another data set of the same source.

B1: L18D7-IgG4 (antibody, V domains shown)
VH: EVQLVESGGGLVQPGGSLRLSCAVSGFTFSSYAMSWVRQAPGKGLEWVSSITGGGGGIYYADSVKGRFTISRDNSKNTVYLQMNSLRAEDTAVYYCAKDRISITIRPRYFGLDFWGQGTTVTVSS
VL: DIVMTQSPLSLPVTPGEPASISCRSSQSLLYSIGYNYLDWYLQKSGQSPQLLIYLGSNRASGVPDRFSGSGSGTDFTLKISRVEAEDVGFYYCMQSFKAPYTFGQGTKLEIKR
notes: also called S1E6 light chain mutant L18D7
As a reminder, the Kd is the constant that tells how readily two partners part at equilibrium. The term koff denotes the rate constant with which the complex falls apart. Usually kon stands for the second-order rate constant of association. On to B1, for which the “IC50 values in inhibition of IL-4 (SEAP, HEK-Blue IL-4/IL-13 cells)” value in [1] came to 0.0484 nM. For the same molecule, in experiment [2], the “IC50 values in inhibition of IL-13 (SEAP, HEK-Blue IL-4/IL-13 cells)” value stood at 0.0102 nM. Moreover, the “IC50 values in inhibition of IL-4 (IL-4 induced proliferation of TF-1 cells, CellTiter-Glo)” value in [3] is 0.116 nM. Moreover, the “IC50 values in inhibition of CD23 expression on human PBMCs (IL-4 stimulated, flow cytometry)” value in experiment [4] was 0.0268 nM. In experiment [5], this molecule had a Kd of 1.67 nM, a koff of 0.000984 s⁻¹ and a kon of 590000 M⁻¹ s⁻¹. Moreover, in [6], the equilibrium dissociation constant (Kd) was found to be 0.48 nM, the off-rate (koff) was 0.000143 s⁻¹ and the kon worked out at 297000 M⁻¹ s⁻¹. The “IC50 (read off the curve)” value in experiment [7] was approximately 10 nM.

B2: L10B2-IgG4 (antibody, V domains shown)
VH: EVQLVESGGGLVQPGGSLRLSCAVSGFTFSSYAMSWVRQAPGKGLEWVSSITGGGGGIYYADSVKGRFTISRDNSKNTVYLQMNSLRAEDTAVYYCAKDRISITIRPRYFGLDFWGQGTTVTVSS
VL: DIVMTQSPLSLPVTPGEPASISCRSSHNLLYSNGYNYLDWYLQKPGQSPQLLIYLGSNRAYGVPDRFSGSGSGTDFTLKISRVEAEDVGVYHCMQALQSPYTFGQGTKVDIKR
notes: also called S1E6 light chain mutant L10B2
Regarding B2, the “IC50 values in inhibition of IL-4 (SEAP, HEK-Blue IL-4/IL-13 cells)” value in [8] was determined as 0.207 nM. Further, the “IC50 values in inhibition of IL-13 (SEAP, HEK-Blue IL-4/IL-13 cells)” value in experiment [9] was 0.0131 nM. In experiment [10], the Kd worked out at 0.443 nM, the off-rate constant (koff) was found to be 0.000152 s⁻¹ and the kon came out at 343000 M⁻¹ s⁻¹. Besides, the “IC50 (read off the curve)” value in [11] is approximately 7 nM.

B3: L28C9-IgG4 (antibody, V domains shown)
VH: EVQLVESGGGLVQPGGSLRLSCAVSGFTFSSYAMSWVRQAPGKGLEWVSSITGGGGGIYYADSVKGRFTISRDNSKNTVYLQMNSLRAEDTAVYYCAKDRISITIRPRYFGLDFWGQGTTVTVSS
VL: DIVMTQSPLSLPVTPGEPASISCRSSQNVVYGNGYNYLDWYLQKSGQSPQLLIYLGNNVAAGVPDRFSGSGSGTDFTLKISRVEAEDVGFYYCMQSLKAPYTFGQGTKLEIKR
notes: also called S1E6 light chain mutant L28C9
Take B3: in experiment [12], the “fold of IC50 in inhibition of IL-4 induced CD23 expression on PBMCs against L18D7” value amounted to 2.3 fold. In [1], the “IC50 values in inhibition of IL-4 (SEAP, HEK-Blue IL-4/IL-13 cells)” value worked out at 0.0494 nM. Moreover, the “IC50 values in inhibition of IL-13 (SEAP, HEK-Blue IL-4/IL-13 cells)” value in experiment [2] stood at 0.0121 nM. For the same molecule, the “IC50 values in inhibition of IL-4 (IL-4 induced proliferation of TF-1 cells, CellTiter-Glo)” value in [3] came out at 0.129 nM. For the same molecule, the “IC50 values in inhibition of CD23 expression on human PBMCs (IL-4 stimulated, flow cytometry)” value in experiment [4] is 0.0635 nM. In [5], this molecule registered a Kd of 8.4 nM, a koff of 0.00594 s⁻¹ and a kon of 706000 M⁻¹ s⁻¹. Moreover, in experiment [6], the dissociation constant (Kd) came to 0.586 nM, the koff worked out at 0.000194 s⁻¹ and the kon stood at 331000 M⁻¹ s⁻¹. Further, the “IC50 (read off the curve)” value in experiment [7] is approximately 4 nM.

B4: L10C2-IgG4 (antibody, V domains shown)
VH: EVQLVESGGGLVQPGGSLRLSCAVSGFTFSSYAMSWVRQAPGKGLEWVSSITGGGGGIYYADSVKGRFTISRDNSKNTVYLQMNSLRAEDTAVYYCAKDRISITIRPRYFGLDFWGQGTTVTVSS
VL: DIVMTQSPLSLPVTAGAPASISCRSSQSLLYSNGYNYLDWYMQKPGQSPQLLIYLGSNRASGVPDRFSGSGSGTDFTLKISRVEAEDVGVYYCMQALETPYAFGQGTKVEIKR
notes: also called S1E6 light chain mutant L10C2
B4: in experiment [12], the “fold of IC50 in inhibition of IL-4 against L10B2 (HEK-Blue IL-4/IL-13 cells)” value is 1.6 fold and the “fold of IC50 in inhibition of IL-13 against L10B2 (HEK-Blue IL-4/IL-13 cells)” value stood at 2.4 fold. Also, the “IC50 values in inhibition of IL-4 (SEAP, HEK-Blue IL-4/IL-13 cells)” value in [8] worked out at 0.333 nM. Besides, the “IC50 values in inhibition of IL-13 (SEAP, HEK-Blue IL-4/IL-13 cells)” value in experiment [9] turned out to be 0.0314 nM. In addition, in [10], the Kd turned out to be 0.874 nM, the koff was determined as 0.000309 s⁻¹ and the on-rate constant (kon) is 353000 M⁻¹ s⁻¹. The “IC50 (read off the curve)” value in [11] is approximately 8 nM.
